Columns and labels:
SMAD4 R100T;SMAD3 WT = experiment: TR-FRET
SMAD4 WT;SMAD3 P124S = experiment: TR-FRET

## 5'-FAM-SBE4
SMAD4 R100T;SMAD3 WT
  binding signal (% of WT PDI signal): 25
SMAD4 WT;SMAD3 P124S
  binding signal (% of WT PDI signal): 25

From publication doi:10.1101/2023.07.15.549169
